{
  "source": "patent US20250382602",
  "key": {"[1]": {"target": "T1, Dda 1993 K358L K358L (Enterobacteria phage T4) (UniProt P32270)", "T1 sequence": "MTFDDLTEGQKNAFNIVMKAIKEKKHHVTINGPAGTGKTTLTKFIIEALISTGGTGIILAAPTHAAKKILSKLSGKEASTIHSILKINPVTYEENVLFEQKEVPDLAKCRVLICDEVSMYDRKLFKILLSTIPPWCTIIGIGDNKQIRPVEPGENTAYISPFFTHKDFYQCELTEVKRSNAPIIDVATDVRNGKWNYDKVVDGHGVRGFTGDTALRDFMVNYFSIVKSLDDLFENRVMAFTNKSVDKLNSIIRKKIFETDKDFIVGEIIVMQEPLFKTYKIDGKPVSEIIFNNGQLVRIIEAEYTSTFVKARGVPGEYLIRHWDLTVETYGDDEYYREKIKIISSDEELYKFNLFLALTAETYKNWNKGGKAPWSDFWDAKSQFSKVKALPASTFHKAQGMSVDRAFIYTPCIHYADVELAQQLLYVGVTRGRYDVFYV", "settings": "nanopore translocation, FLO-MIN106; background mutations not given"}, "[2]": {"target": "T2, Dda 1993 K358M K358M (Enterobacteria phage T4) (UniProt P32270)", "T2 sequence": "T1 sequence with L358M", "settings": "nanopore translocation, FLO-MIN106; background mutations not given"}, "[3]": {"target": "T3, Dda 1993 K358E K358E (Enterobacteria phage T4) (UniProt P32270)", "T3 sequence": "T1 sequence with L358E", "settings": "nanopore translocation, FLO-MIN106; background mutations not given"}, "[4]": {"target": "T4, Dda 1993 K358I K358I (Enterobacteria phage T4) (UniProt P32270)", "T4 sequence": "T1 sequence with L358I", "settings": "nanopore translocation, FLO-MIN106; background mutations not given"}, "[5]": {"target": "T5, Dda 1993 K177L K177L (Enterobacteria phage T4) (UniProt P32270)", "T5 sequence": "T1 sequence with K177L, L358K", "settings": "nanopore translocation; background mutations not given"}, "[6]": {"target": "T6, Dda 1993 K177H K177H (Enterobacteria phage T4) (UniProt P32270)", "T6 sequence": "T1 sequence with K177H, L358K", "settings": "nanopore translocation; background mutations not given"}},
  "note": "Residue numbers refer to the chain shown, from its start.",
  "data": [
    {"substance": "barcoded 3.6 kb DNA analyte ligated to sequencing Y adaptor", "values": [
      {"measurement": "activity (bps speed delta vs control)", "setting": "[1]", "value": -42.7},
      {"measurement": "activity (bps speed delta vs control)", "setting": "[2]", "value": -48.6},
      {"measurement": "activity (bps speed delta vs control)", "setting": "[3]", "value": -53.9},
      {"measurement": "activity (bps speed delta vs control)", "setting": "[4]", "value": -40.2},
      {"measurement": "activity (bps speed delta vs control)", "setting": "[5]", "value": 51.4},
      {"measurement": "activity (bps speed delta vs control)", "setting": "[6]", "value": 10.6}
    ]}
  ]
}
